Test results from paper PMC11359516, “Methionine Synthase 2 Represses Stem Cell Maintenance of Arabidopsis thaliana in Response to Salt Stress” (Plants, 2024).
Blank lines part the entries; values can stand above or below the binder they belong to.

Assays:
[1] = target: T1, GST:AtMS2 (Arabidopsis METHIONINE SYNTHASE 2 fused with GST) (Arabidopsis thaliana, UniProt Q9SRV5 1-765); assay: pull-down; MBP fusions or MBP immobilised on amylose resin, incubated with GST:AtMS2; 50 mM Tris-HCl pH 7.4, 200 mM NaCl, 5.0% glycerol, 1.5% Triton X-100, 10 mM NaF, 1.0 mM Na3VO4, 1.0 mM PMSF; 1.5 h at 4 °C; immunoblot with anti-GST antibody; conditions: both partners purified
T1 construct: METHIONINE SYNTHASE 2 (AtMS2), Arabidopsis thaliana, At3g03780; AtMS2 cDNA cloned into pGEX-4T-1; also called AtMS2 protein fused with GST; AtMS2 in fusion with GST; source: E. coli BL21, purified (glutathione resin)
T1 sequence (looked up): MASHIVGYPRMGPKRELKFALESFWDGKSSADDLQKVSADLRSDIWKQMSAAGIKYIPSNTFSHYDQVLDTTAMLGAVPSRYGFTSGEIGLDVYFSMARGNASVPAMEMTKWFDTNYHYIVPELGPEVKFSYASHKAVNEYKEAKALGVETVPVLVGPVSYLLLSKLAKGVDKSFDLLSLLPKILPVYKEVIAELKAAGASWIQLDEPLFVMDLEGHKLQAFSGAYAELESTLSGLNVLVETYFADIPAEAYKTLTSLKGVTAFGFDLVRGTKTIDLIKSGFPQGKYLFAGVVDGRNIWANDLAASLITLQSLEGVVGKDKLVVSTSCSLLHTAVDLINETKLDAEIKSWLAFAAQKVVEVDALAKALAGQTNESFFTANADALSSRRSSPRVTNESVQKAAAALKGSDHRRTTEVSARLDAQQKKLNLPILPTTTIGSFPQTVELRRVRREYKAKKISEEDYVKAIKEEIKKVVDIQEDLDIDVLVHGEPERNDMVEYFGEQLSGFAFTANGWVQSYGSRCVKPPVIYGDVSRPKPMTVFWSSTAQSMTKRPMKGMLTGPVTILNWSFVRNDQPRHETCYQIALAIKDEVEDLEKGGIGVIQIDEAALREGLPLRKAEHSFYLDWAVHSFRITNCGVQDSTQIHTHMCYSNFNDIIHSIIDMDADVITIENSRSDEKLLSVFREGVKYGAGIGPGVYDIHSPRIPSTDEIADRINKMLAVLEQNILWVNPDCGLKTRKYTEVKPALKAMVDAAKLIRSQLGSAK

MBP:AtMS2 = target: T2, MBP:AtMS2 (Arabidopsis thaliana, UniProt Q9SRV5 1-765); assay: native gel or EMSA; super shift of a Texas red-labeled WUS or WOX5 promoter probe; 20 uL binding buffer (10 mM Hepes-KOH pH 7.8, 20 mM KCl, 10 mM MgCl2, 1 mM DTT, 0.1% BSA, 5% glycerol, 0.5% Triton-X100, 20 ng/uL salmon sperm DNA), 22 °C, 30 min; 6% polyacrylamide gel; conditions: both partners purified
T2 construct: METHIONINE SYNTHASE 2 (AtMS2), Arabidopsis thaliana, At3g03780; cloned into the pMBP-c vector; source: E. coli BL21, purified (amylose resin)
T2 sequence (looked up): T1 sequence (looked up)

binding result [1]: binds
B1: MBP:WOX4 (natural protein, Arabidopsis thaliana, UniProt Q6X7J9 1-251, looked up)
chain: MKVHEFSNGFSSSWDQHDSTSSLSLSCKRLRPLAPKLSGSPPSPPSSSSGVTSATFDLKNFIRPDQTGPTKFEHKRDPPHQLETHPGGTRWNPTQEQIGILEMLYKGGMRTPNAQQIEHITLQLGKYGKIEGKNVFYWFQNHKARERQKQKRNNLISLSCQSSFTTTGVFNPSVTMKTRTSSSLDIMREPMVEKEELVEENEYKRTCRSWGFENLEIENRRNKNSSTMATTFNKIIDNVTLELFPLHPEGR
notes: WUSCHEL-RELATED HOMEOBOX 4 (WOX4), Arabidopsis thaliana, At1g46480; cloned into the pMBP-c vector; also called MBP-tagged WOX4; source: E. coli BL21, purified (amylose resin)

binding result [1]: binds
binding result (MBP:AtMS2): binds
B2: MBP:WOX5 (natural protein, Arabidopsis thaliana, UniProt Q8H1D2 1-182, looked up)
chain: MSFSVKGRSLRGNNNGGTGTKCGRWNPTVEQLKILTDLFRAGLRTPTTDQIQKISTELSFYGKIESKNVFYWFQNHKARERQKRRKISIDFDHHHHQPSTRDVFEISEEDCQEEEKVIETLQLFPVNSFEDSNSKVDKMRARGNNQYREYIRETTTTSFSPYSSCGAEMEHPPPLDLRLSFL
notes: WUSCHEL-RELATED HOMEOBOX 5 (WOX5), Arabidopsis thaliana, At3g11260; cloned into the pMBP-c vector; also called MBP-tagged WOX5; source: E. coli BL21, purified (amylose resin)

binding result [1]: binds
binding result (MBP:AtMS2): binds
B3: MBP (maltose-binding protein):WUS fusion protein (natural protein, Arabidopsis thaliana, UniProt Q9SB92 1-292, looked up)
chain: MEPPQHQHHHHQADQESGNNNNNKSGSGGYTCRQTSTRWTPTTEQIKILKELYYNNAIRSPTADQIQKITARLRQFGKIEGKNVFYWFQNHKARERQKKRFNGTNMTTPSSSPNSVMMAANDHYHPLLHHHHGVPMQRPANSVNVKLNQDHHLYHHNKPYPSFNNGNLNHASSGTECGVVNASNGYMSSHVYGSMEQDCSMNYNNVGGGWANMDHHYSSAPYNFFDRAKPLFGLEGHQEEEECGGDAYLEHRRTLPLFPMHGEDHINGGSGAIWKYGQSEVRPCASLELRLN
notes: WUSCHEL (WUS), Arabidopsis thaliana, At2g17950; cloned into the pMBP-c vector; also called MBP:WUS; MBP-tagged WUS; source: E. coli BL21, purified (amylose resin)
